For this experiment, the target named is HyHEL-10 antibody. Put plainly: SPR; binding affinity of the HEL variants to HyHEL-10; who was immobilised is not shown (Fig. S20). On the technique in general: SPR reads the build-up and loss of mass on a sensor chip optically.

As to “HEL-K96Nvoc (10) (from UniProt P00698 19-147) (natural protein)”, the fold weaker binding affinity than native HEL was 6000 fold.

For the origin of these results see publication PMC5965250.
